# Measurements as given in patent US20120277142A1 (HANALL BIOPHARMA, published 2012).
# Positions count from the first letter of the chain named.
# B1: Met-TNFRI126 (receptor)
# chain: MDSVCPQGKYIHPQNNSICCTKCHKGTYLYNDCPGPGQDTDCRECESGSFTASENHLRHCLSCSKCRKEMGQVEISSCTVDRDTVCGCRKNQYRHYWSENLFQCFNCSLCLNGTVHLSCQEKQNTVC
# notes: also called Wild-type (TNFRI126); wild-type TNFRI
# B2: TNFRI126-A22 (receptor)
# chain: B1 chain with S53M, H56F, R58P, H59G
# notes: Met-TNFRI126 mutant made in E. coli
# B3: TNFRI126-A29 (receptor)
# chain: B1 chain with S53I, E54P, H56F, R58F, H59G
# notes: as for B2
# B4: TNFRI126-A20 (receptor)
# chain: B1 chain with S53E, H56F, R58P, H59A
# notes: as for B2
# B5: TNFRI126-A21 (receptor)
# chain: B1 chain with S53I, H56F, R58P, H59G
# notes: as for B2
# B6: TNFRI126-A27 (receptor)
# chain: B1 chain with S53I, E54P, H56F, R58L, H59G
# notes: as for B2
# B7: TNFRI126-A25 (receptor)
# chain: B1 chain with S53I, E54P, H56F, R58F, H59A
# notes: as for B2
# B8: TNFRI126-A23 (receptor)
# chain: B1 chain with S53I, E54P, H56F, R58L, H59A
# notes: as for B2
# B9: TNFRI126-A24 (receptor)
# chain: B1 chain with S53I, E54P, H56F, R58I, H59A
# notes: as for B2
# B10: TNFRI126-A30 (receptor)
# chain: B1 chain with S53I, E54P, H56F, R58P, H59A
# notes: as for B2
# B11: TNFRI126-A26 (receptor)
# chain: B1 chain with S53I, E54P, H56F, R58P, H59G
# notes: as for B2
# B12: Met-TNFRI171 (receptor)
# chain: MDSVCPQGKYIHPQNNSICCTKCHKGTYLYNDCPGPGQDTDCRECESGSFTASENHLRHCLSCSKCRKEMGQVEISSCTVDRDTVCGCRKNQYRHYWSENLFQCFNCSLCLNGTVHLSCQEKQNTVCTCHAGFFLRENECVSCSNCKKSLECTKLCLPQIENVKGTEDSGTT
# notes: also called Wild-type (TNFRI171); wild-type TNFRI
# B13: TNFRI171-A2 (receptor)
# chain: B12 chain with S53I, H56F, R58P, H59A
# B14: TNFRI171-A22 (receptor)
# chain: B12 chain with S53M, H56F, R58P, H59G
# B15: TNFRI171-A8 (receptor)
# chain: B12 chain with S53F, H56F, R58P, H59A
# B16: TNFRI171-A30 (receptor)
# chain: B12 chain with S53I, E54P, H56F, R58P, H59A
# B17: TNFRI171-A26 (receptor)
# chain: B12 chain with S53I, E54P, H56F, R58P, H59G
# B18: TNFRI171-A16 (receptor)
# chain: B12 chain with S53K, H56F, R58P, H59A
# B19: TNFRI171-A9 (receptor)
# chain: B12 chain with S53M, H56F, R58P, H59A
# B20: TNFRI171-A18 (receptor)
# chain: B12 chain with S53H, H56F, R58P, H59A
# B21: TNFRI171-A15 (receptor)
# chain: B12 chain with S53Y, H56F, R58P, H59A
# B22: TNFRI171-A10 (receptor)
# chain: B12 chain with S53W, H56F, R58P, H59A
# B23: TNFRI171-A21 (receptor)
# chain: B12 chain with S53I, H56F, R58P, H59G
# B24: TNFRI105-S31 (receptor)
# chain: MDSVCPQGKYIHPQNNSICCTKCHKGTYVYNDCPGPGQDTDCRECESGSFTAIENFLPACLSCSKCRKEMGQVEISSCTVDRDTVCGCRKNQYRHYWSENLFQCFN
# notes: Met-TNFRI105 superlead mutant made in E. coli
# B25: TNFRI105-S41 (receptor)
# chain: B24 chain with I53H
# notes: as for B24
# B26: TNFRI105-S36 (receptor)
# chain: B24 chain with I53M
# notes: as for B24
# B27: Met-TNFRI105 (receptor)
# chain: B24 chain with V29L, I53S, F56H, P58R, A59H
# notes: also called Wild-type (TNFRI105)
# B28: TNFRI105-S47 (receptor)
# chain: B24 chain with I53M, A59G
# notes: as for B24
# B29: TNFRI105-S46 (receptor)
# chain: B24 chain with A59G
# notes: as for B24
# B30: TNFRI126-S36 (receptor)
# chain: B1 chain with L29V, S53M, H56F, R58P, H59A
# notes: Met-TNFRI126 superlead mutant made in E. coli
# B31: TNFRI126-S48 (receptor)
# chain: B1 chain with L29V, S53I, E54P, H56F, R58P, H59G
# notes: as for B30
# B32: TNFRI126-S56 (receptor)
# chain: B1 chain with L29V, S53M, H56F, R58P, H59A, K122Q
# notes: as for B30
# B33: TNFRI126-S46 (receptor)
# chain: B1 chain with L29V, S53I, H56F, R58P, H59G
# notes: as for B30
# B34: TNFRI126-S57 (receptor)
# chain: B1 chain with L29V, S53M, H56F, R58P, H59A, K122N
# notes: as for B30
# B35: TNFRI126-S54 (receptor)
# chain: B1 chain with L29V, S53I, H56F, R58P, H59A, K122N
# notes: as for B30
# B36: TNFRI126-S60 (receptor)
# chain: B1 chain with L29V, S53H, H56F, R58P, H59A, K122N
# notes: as for B30
# B37: TNFRI126-S31 (receptor)
# chain: B1 chain with L29V, S53I, H56F, R58P, H59A
# notes: as for B30
# B38: TNFRI126-S63 (receptor)
# chain: B1 chain with L29V, S53M, H56F, R58P, H59G, K122N
# notes: as for B30
# B39: TNFRI126-S41 (receptor)
# chain: B1 chain with L29V, S53H, H56F, R58P, H59A
# notes: as for B30
# B40: TNFRI126-S59 (receptor)
# chain: B1 chain with L29V, S53H, H56F, R58P, H59A, K122Q
# notes: as for B30
# B41: TNFRI126-S62 (receptor)
# chain: B1 chain with L29V, S53I, H56F, R58P, H59G, K122Q
# notes: as for B30
# B42: TNFRI126-S47 (receptor)
# chain: B1 chain with L29V, S53M, H56F, R58P, H59G
# notes: as for B30
# B43: TNFRI126-S53 (receptor)
# chain: B1 chain with L29V, S53I, H56F, R58P, H59A, K122Q
# notes: as for B30
# Target: T1, TNF-α (UniProt P01375 77-233, limits assumed)
# T1 construct: also called tumor necrosis factor; ligand
# Experiment: competition ELISA: sample vs plate-bound TNFRI190 for TNF-α, from IC50, relative to wild-type TNFRI126
# Protocol: (§1) Each well was washed three times with 300 μL of washing buffer (0.05% Tween-20, PBS, pH 7.4) and incubated at room temperature for 2 hours with 300 μL of a blocking buffer (5% skim milk, PBS, pH 7.4). Then, each well was washed as mentioned above. A sample of interest was diluted to concentrations of 500 nM, 125 nM, 31 nM, 7.8 nM, 1.9 nM, 0.48 nM, 0.12 nM, and 0.03 nM in series and loaded in an amount of 100 μL into each well in duplicate. To each well was added 100 μL of 50 ng/ml TNF-α, followed by incubation at room temperature for 2 hours. After the wells were washed with a washing buffer, 100 μg/mL anti-TNF-α antibody solution was diluted 1/1000, added in an amount of 100 μL per each well, and incubated at room temperature for 2 hours. After the plates were washed with a washing buffer, a substrate was added in an amount of 100 μL to each well and reacted at room temperature for 15 min. In each well, 100 μL of the substrate 3,3′,5,5′-tetramethylbenzidine (RnD, Cat. No: DY999) was reacted at room temperature for 15 min, followed by adding 50 μL of 1.0 M sulfuric acid (Samchun Chemical, Cat. No: 52129) to each well to stop the reaction.
# Affinity of Met-TNFRI and Met-TNFRI mutants for TNF-α was determined by measuring an absorbance change with concentration and evaluating IC₅₀ value by measuring an absorbance change with concentration.
row,Affinity (%),Binder
1,100%,B1
2,1430%,B2
3,435%,B3
4,782%,B4
5,1400%,B5
6,894%,B6
7,682%,B7
8,1100%,B8
9,1060%,B9
10,952%,B10
11,1140%,B11

# Target: T1, TNF-α
# Experiment: cell-based or functional assay
row,Binder,Relative Activity (Cytotoxicity-neutralizing activity) (fold)
1,B12,1 fold
2,B13,207 fold
3,B14,242 fold
4,B15,120 fold
5,B16,127 fold
6,B17,196 fold
7,B18,139 fold
8,B19,158 fold
9,B20,126 fold
10,B21,142 fold
11,B22,44 fold
12,B23,226 fold

# Target: T1, TNF-α
# Experiment: competition ELISA: sample vs plate-bound TNFRI190 for TNF-α, from IC50, relative to wild-type TNFRI105
# Protocol: as §1
# (§2) The affinity of the Met-TNFRI for TNF-α was assayed using the same procedure as in [Experimental Example 1]
row,Relative Affinity for Ligand (%),Binder
1,453%,B24
2,403%,B25
3,459%,B26
4,100%,B27
5,497%,B28
6,547%,B29

# Target: T1, TNF-α
# Experiment: competition ELISA: sample vs plate-bound TNFRI190 for TNF-α, from IC50, relative to wild-type TNFRI171
# Protocol: as §1, §2
row,Relative Affinity for Ligand (%),Binder
1,100%,B12

# Target: T1, TNF-α
# Experiment: competition ELISA: sample vs plate-bound TNFRI190 for TNF-α, from IC50, relative to wild-type TNFRI126
# Remark: another data set of the same source
# Protocol: as §1, §2
row,Relative Affinity for Ligand (%),Binder
1,100%,B1
2,489%,B30
3,477%,B31
4,602%,B32
5,412%,B33
6,465%,B34
7,448%,B35
8,397%,B36
9,457%,B37
10,486%,B38
11,432%,B39
12,463%,B40
13,543%,B41
14,501%,B42
15,522%,B43
